These results are taken from US20220211812A1 (Bristol-Myers Squibb, published 2022).

Sequences and labels used below:
T1: human RXFP1 receptor (human, UniProt Q9HBX9 1-757)
T1 sequence (looked up): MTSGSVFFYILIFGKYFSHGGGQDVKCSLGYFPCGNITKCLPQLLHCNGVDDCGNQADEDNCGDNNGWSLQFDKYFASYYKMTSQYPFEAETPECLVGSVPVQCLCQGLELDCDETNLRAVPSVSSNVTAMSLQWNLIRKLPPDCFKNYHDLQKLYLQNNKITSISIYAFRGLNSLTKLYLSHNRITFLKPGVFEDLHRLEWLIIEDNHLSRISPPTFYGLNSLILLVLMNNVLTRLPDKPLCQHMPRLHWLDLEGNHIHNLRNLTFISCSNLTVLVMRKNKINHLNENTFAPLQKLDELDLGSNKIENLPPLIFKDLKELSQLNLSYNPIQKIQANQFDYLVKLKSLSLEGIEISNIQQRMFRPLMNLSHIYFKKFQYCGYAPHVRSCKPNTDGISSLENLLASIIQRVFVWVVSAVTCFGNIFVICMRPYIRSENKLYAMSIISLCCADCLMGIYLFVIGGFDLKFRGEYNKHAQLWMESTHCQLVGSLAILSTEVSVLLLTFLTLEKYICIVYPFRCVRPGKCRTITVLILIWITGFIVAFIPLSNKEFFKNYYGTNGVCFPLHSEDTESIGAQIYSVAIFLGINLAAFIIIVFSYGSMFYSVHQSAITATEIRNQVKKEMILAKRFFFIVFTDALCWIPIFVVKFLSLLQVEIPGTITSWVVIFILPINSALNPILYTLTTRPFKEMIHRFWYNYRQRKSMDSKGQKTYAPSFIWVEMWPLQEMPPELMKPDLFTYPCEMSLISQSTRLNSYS

B1: AQ1-EEEEPEEEEPEEEEPEEEE-Glu^γ-C15-CH3 (ligand)
chain 1: XLYSALANKCCHVGCTKRSLARFC
chain 2: ASWMEEVIKLCGRELVRAQIAICGMSTWS
peptide: EEEEPEEEEPEEEEPEEEEE
modifications: not fully specified; Glu^γ bonded by amide to fatty acid -C15-CH3; oxime-linked to pAcF of the A chain; pAcF (para-acetyl-L-phenylalanine) at position 1, oxime-linked to PK enhancer EEEEPEEEEPEEEEPEEEE-Glu^γ-C15-CH3
B2: AQ1-EEEEGEEEEGEEEEGEEEE-Gluγ-C14-CH3 (ligand)
chain 1: XLYSALANKCCHVGCTKRSLARFC
chain 2: ASWMEEVIKLCGRELVRAQIAICGMSTWS
peptide: EEEEGEEEEGEEEEGEEEEE
modifications: not fully specified; Glu^γ bonded by amide to fatty acid -C14-CH3; oxime-linked to pAcF of the A chain; pAcF (para-acetyl-L-phenylalanine) at position 1, oxime-linked to PK enhancer EEEEGEEEEGEEEEGEEEE-Gluγ-C14-CH3
B3: AQ1-EEEEEE-Glu^γ-C15-COOH (ligand)
chain 1: XLYSALANKCCHVGCTKRSLARFC
chain 2: ASWMEEVIKLCGRELVRAQIAICGMSTWS
peptide: EEEEEEE
modifications: not fully specified; Glu^γ bonded by amide to fatty acid -C15-COOH; oxime-linked to pAcF of the A chain; pAcF (para-acetyl-L-phenylalanine) at position 1, oxime-linked to PK enhancer EEEEEE-Glu^γ-C15-COOH
B4: AQ1-EEEEEE-Glu^γ-C14-CH3 (ligand)
chain 1: XLYSALANKCCHVGCTKRSLARFC
chain 2: ASWMEEVIKLCGRELVRAQIAICGMSTWS
peptide: EEEEEEE
modifications: not fully specified; Glu^γ bonded by amide to fatty acid -C14-CH3; oxime-linked to pAcF of the A chain; pAcF (para-acetyl-L-phenylalanine) at position 1, oxime-linked to PK enhancer EEEEEE-Glu^γ-C14-CH3
B5: AQ1-EEEGGG-Glu^γ-C14-COOH (ligand)
chain 1: XLYSALANKCCHVGCTKRSLARFC
chain 2: ASWMEEVIKLCGRELVRAQIAICGMSTWS
peptide: EEEGGGE
modifications: not fully specified; Glu^γ bonded by amide to fatty acid -C14-COOH; oxime-linked to pAcF of the A chain; pAcF (para-acetyl-L-phenylalanine) at position 1, oxime-linked to PK enhancer EEEGGG-Glu^γ-C14-COOH
B6: AQ1-KGGGS-Glu^γ-C14-COOH (ligand)
chain 1: XLYSALANKCCHVGCTKRSLARFC
chain 2: ASWMEEVIKLCGRELVRAQIAICGMSTWS
peptide: KGGGSE
modifications: not fully specified; Glu^γ bonded by amide to fatty acid -C14-COOH; oxime-linked to pAcF of the A chain; pAcF (para-acetyl-L-phenylalanine) at position 1, oxime-linked to PK enhancer KGGGS-Glu^γ-C14-COOH
B7: AQ1-EGGGP-Glu^γ-C14-COOH (ligand)
chain 1: XLYSALANKCCHVGCTKRSLARFC
chain 2: ASWMEEVIKLCGRELVRAQIAICGMSTWS
peptide: EGGGPE
modifications: not fully specified; Glu^γ bonded by amide to fatty acid -C14-COOH; oxime-linked to pAcF of the A chain; pAcF (para-acetyl-L-phenylalanine) at position 1, oxime-linked to PK enhancer EGGGP-Glu^γ-C14-COOH
B8: AQ1-EEEEPEEEEPEEEEPEEGGG-C14-CH3 (ligand)
chain 1: XLYSALANKCCHVGCTKRSLARFC
chain 2: ASWMEEVIKLCGRELVRAQIAICGMSTWS
peptide: EEEEPEEEEPEEEEPEEGGG
modifications: linked to fatty acid -C14-CH3; oxime-linked to pAcF of the A chain; pAcF (para-acetyl-L-phenylalanine) at position 1, oxime-linked to PK enhancer EEEEPEEEEPEEEEPEEGGG-C14-CH3
B9: AQ1-Spermine-Glu^γ-C14-COOH (ligand)
chain 1: XLYSALANKCCHVGCTKRSLARFC
chain 2: ASWMEEVIKLCGRELVRAQIAICGMSTWS
modifications: not fully specified; pAcF (para-acetyl-L-phenylalanine) at position 1, oxime-linked to PK enhancer Spermine-Glu^γ-C14-COOH (compound 27 of Example 6)
B10: AQ1-EEEEPEEEEPEEEEPEEEE-Glu^γ-C14-CH3 (ligand)
chain 1: XLYSALANKCCHVGCTKRSLARFC
chain 2: ASWMEEVIKLCGRELVRAQIAICGMSTWS
peptide: EEEEPEEEEPEEEEPEEEEE
modifications: not fully specified; Glu^γ bonded by amide to fatty acid -C14-CH3; oxime-linked to pAcF of the A chain; pAcF (para-acetyl-L-phenylalanine) at position 1, oxime-linked to PK enhancer EEEEPEEEEPEEEEPEEEE-Glu^γ-C14-CH3
B11: AQ1-SGGGS-Glu^γ-C14-COOH (ligand)
chain 1: XLYSALANKCCHVGCTKRSLARFC
chain 2: ASWMEEVIKLCGRELVRAQIAICGMSTWS
peptide: SGGGSE
modifications: not fully specified; Glu^γ bonded by amide to fatty acid -C14-COOH; oxime-linked to pAcF of the A chain; pAcF (para-acetyl-L-phenylalanine) at position 1, oxime-linked to PK enhancer SGGGS-Glu^γ-C14-COOH
B12: AQ1-GSPGSP-Glu^γ-C14-COOH (ligand)
chain 1: XLYSALANKCCHVGCTKRSLARFC
chain 2: ASWMEEVIKLCGRELVRAQIAICGMSTWS
peptide: GSPGSPE
modifications: not fully specified; Glu^γ bonded by amide to fatty acid -C14-COOH; oxime-linked to pAcF of the A chain; pAcF (para-acetyl-L-phenylalanine) at position 1, oxime-linked to PK enhancer GSPGSP-Glu^γ-C14-COOH
B13: AQ1-KKGGS-Glu^γ -C15-COOH (ligand)
chain 1: XLYSALANKCCHVGCTKRSLARFC
chain 2: ASWMEEVIKLCGRELVRAQIAICGMSTWS
peptide: KKGGSE
modifications: not fully specified; Glu^γ bonded by amide to fatty acid -C15-COOH; oxime-linked to pAcF of the A chain; pAcF (para-acetyl-L-phenylalanine) at position 1, oxime-linked to PK enhancer KKGGS-Glu^γ-C15-COOH
B14: AQ1-KGGGSE-Glu^γ-C14-COOH (ligand)
chain 1: XLYSALANKCCHVGCTKRSLARFC
chain 2: ASWMEEVIKLCGRELVRAQIAICGMSTWS
peptide: KGGGSEE
modifications: not fully specified; Glu^γ bonded by amide to fatty acid -C14-COOH; oxime-linked to pAcF of the A chain; pAcF (para-acetyl-L-phenylalanine) at position 1, oxime-linked to PK enhancer KGGGSE-Glu^γ-C14-COOH
B15: AQ1-EGGGGSK-Glu^γ-C13-COOH (ligand)
chain 1: XLYSALANKCCHVGCTKRSLARFC
chain 2: ASWMEEVIKLCGRELVRAQIAICGMSTWS
peptide: EGGGGSKE
modifications: not fully specified; Glu^γ bonded by amide to fatty acid -C13-COOH; oxime-linked to pAcF of the A chain; pAcF (para-acetyl-L-phenylalanine) at position 1, oxime-linked to PK enhancer EGGGGSK-Glu^γ-C13-COOH
B16: AQ1-KGPKGP-Glu^γ-C14-COOH (ligand)
chain 1: XLYSALANKCCHVGCTKRSLARFC
chain 2: ASWMEEVIKLCGRELVRAQIAICGMSTWS
peptide: KGPKGPE
modifications: not fully specified; Glu^γ bonded by amide to fatty acid -C14-COOH; oxime-linked to pAcF of the A chain; pAcF (para-acetyl-L-phenylalanine) at position 1, oxime-linked to PK enhancer KGPKGP-Glu^γ-C14-COOH

The target of this assay is T1, human RXFP1 receptor. Put plainly: cell-based or functional assay.
As to B1, the “hRXFP1/CHO-K1 cAMP EC50 (nM, avg)” value is 0.34 nM.
Under B2 stands 0.67 nM; under B3, 11.1 nM.
For B4, the “hRXFP1/CHO-K1 cAMP EC50 (nM, avg)” value stood at 0.38 nM.
For B5, the “hRXFP1/CHO-K1 cAMP EC50 (nM, avg)” value turned out to be 1.88 nM.
On to B6, for which the “hRXFP1/CHO-K1 cAMP EC50 (nM, avg)” value turned out to be 0.34 nM.
Consider B7, for which the “hRXFP1/CHO-K1 cAMP EC50 (nM, avg)” value was found to be 0.44 nM.
For B8, the “hRXFP1/CHO-K1 cAMP EC50 (nM, avg)” value is 0.16 nM.
On to B9, for which the “hRXFP1/CHO-K1 cAMP EC50 (nM, avg)” value is 0.39 nM.
As for B10, the “hRXFP1/CHO-K1 cAMP EC50 (nM, avg)” value was 0.33 nM.
As for B11, the “hRXFP1/CHO-K1 cAMP EC50 (nM, avg)” value is 0.32 nM.
In the case of B12 it was 0.29 nM; in that of B13, 1.36 nM; in that of B14, 0.37 nM.
Take B15: the “hRXFP1/CHO-K1 cAMP EC50 (nM, avg)” value turned out to be 0.31 nM.
Under B16 stands 0.23 nM.
